Test results as given in patent US20210355187A1, “GLP-2 FUSION POLYPEPTIDES AND USES FOR TREATING AND PREVENTING GASTROINTESTINAL CONDITIONS” (SHIRE-NPS PHARMACEUTICALS, INC., priority 2018, published 2021).
Where two headings read alike, the source gives them in different places.

How the values were obtained:
[1] = cited from earlier work
[2] = SEC-MALS assay (protein stability analysis); type: physicochemical; conditions: for SEC-MALS Main Peak: main peak fraction; for SEC-MALS Tailing Peak: tailing peak fraction; for SEC-MALS HMW: high molecular weight fraction
Protocol: A SEC-MALS assay was performed to determine the primary state (main peak) and its molecular weight. The GLP-2 peptibody A has the amino acid sequence set forth in SEQ ID NO: 1. The GLP-2 peptibody B has the amino acid sequence set forth in SEQ ID NO: 4. The GLP-2 peptibody C has the amino acid sequence set forth in SEQ ID NO: 7. The GLP-2 peptibody D has the amino acid sequence set forth in SEQ ID NO: 10.

CC[C@H](C)[C@H](NC(=O)[C@H](Cc1ccccc1)NC(=O)[C@H](CC(=O)O)NC(=O)[C@H](CCCNC(=N)N)NC(=O)[C@H](C)NC(=O)[C@H](C)NC(=O)[C@H](CC(C)C)NC(=O)[C@H](CC(N)=O)NC(=O)[C@H](CC(=O)O)NC(=O)[C@H](CC(C)C)NC(=O)[C@@H](NC(=O)[C@@H](NC(=O)[C@H](CC(N)=O)NC(=O)[C@H](CCSC)NC(=O)[C@H](CCC(=O)O)NC(=O)[C@H](CC(=O)O)NC(=O)[C@H](CO)NC(=O)[C@H](Cc1ccccc1)NC(=O)[C@H](CO)NC(=O)CNC(=O)[C@H](CC(=O)O)NC(=O)CNC(=O)[C@@H](N)Cc1c[nH]cn1)[C@@H](C)O)[C@@H](C)CC)C(=O)N[C@@H](CC(N)=O)C(=O)N[C@@H](Cc1c[nH]c2ccccc12)C(=O)N[C@@H](CC(C)C)C(=O)N[C@H](C(=O)N[C@@H](CCC(N)=O)C(=O)N[C@H](C(=O)N[C@@H](CCCCN)C(=O)N[C@H](C(=O)N[C@H](C(=O)N[C@@H](CC(=O)O)C(=O)O)[C@@H](C)O)[C@@H](C)CC)[C@@H](C)O)[C@@H](C)CC [Teduglutide]
half-life ([1]; SBS patients): ~1.3 h
half-life ([1]; healthy patients): approximately 2 hours

GLP-2 peptibody C: GLP-2[A2G]-linker AEAAAKEAAAKEAAAKALEAEAAAKEAAAKEAAAKA-IgG1(LALA) Fc fusion having the amino acid sequence of SEQ ID NO: 7
SEC-MALS Main Peak [2]: 82.6% Main Peak
SEC-MALS Tailing Peak [2]: 17.4% Tailing Peak

GLP-2 peptibody B: GLP-2[A2G]-linker APAPAPAPAPAPAPAPAPAP-IgG1(LALA) Fc fusion having the amino acid sequence of SEQ ID NO: 4
SEC-MALS HMW [2]: 1.2% HMW
SEC-MALS Main Peak [2]: 80.7% Main Peak
SEC-MALS Tailing Peak [2]: 18.1% Tailing Peak

GLP-2 peptibody D: GLP-2[A2G] with C-terminal arginine-linker GGGGSGGGGSGGGGS-IgG1(LALA) Fc fusion having the amino acid sequence of SEQ ID NO: 10
SEC-MALS HMW [2]: 1.4% HMW
SEC-MALS Main Peak [2]: 86.8% Main Peak
SEC-MALS Tailing Peak [2]: 11.8% Tailing Peak
